Measurements reported in patent US20230338465A1 (VITRUVIAE, published 2023).
Several values for one entry are separate records, joined by “and”; a condition that tells them apart may be missing. Identical values can stand only once. Like-named read-outs stand apart in the source and are kept apart here.

B1: VP025-CT (co-transfected product of genes TM-G4-A-DC and CT-G4-B-DC, heterodimer mixture) (Fc fusion)
chain 1: SVKVGGEAGPSVTLPCHYSGAVTSMCWNRGSCSLFTCQNGIVWTNGTHVTYRKDTRYKLLGDLSRRDVSLTIENTAVSDSGVYCCRVEHRGWFNDMKITVSLEIVGGGGSGGGGSGGGGSKYGPPCPPCPAPEAAGGPSVFLFPPKPKDTLMISRTPEVTCVVVDVSQEDPEVQFNWYVDGVEVHNAKTKPREEQFNSTYRVVSVLTVLHQDWLNGKEYKCAVSNKGLPSSIEKTISKCKGQPREPQVYTLPPSQEEMTKNQVSLTCLVKGFYPSDIAVEWESNGQPENNYKTTPPVLDSDGSFFLYSRLTVDKSRWQEGNVFSCSVMHEALHNHYTQKSLSLSLGK
chain 2: ERLCHPCPWEWTFFQGNCYFMSNSQRNWHDSITACKEVGAQLVVIKSAEEQNFLQLQSSRSNRFTWMGLSDLNQEGTWQWVDGSPLLPSFKQYWNRGEPNNVGEEDCAEFSGNGWNDDKCNLAKFWICKKSAASCSGGGGSGGGGSGGGGSKYGPPCPPCPAPEAAGGPSVFLFPPKPKDTLMISRTPEVTCVVVDVSQEDPEVQFNWYVDGVEVHNAKTKPREEQFNSTYRVVSVLTVLHQDWLNGKEYKCAVSNKGLPSSIEKTISKCKGQPREPQVYTLPPSQEEMTKNQVSLTCLVKGFYPSDIAVEWESNGQPENNYKTTPPVLDSDGSFLLYSKLTVDKSRWQEGNVFSCSVMHEALHNHYTQKSLSLSLGK
notes: also called VP025-CT (heterodimer mixture)
B2: VP019-F2 (multimer fraction F2 of VP019, V-TIM1-1 with V-IGG4-ADC-A-Fc) (Fc fusion)
chain: B1 chain 1
notes: also called TM-G4-A-DC; VIT-307
B3: VP020 (V-CTLD-1 with V-IGG4-ADC-B-Fc) (Fc fusion)
chain: B1 chain 2
notes: also called CT-G4-B-DC; VIT-308

Columns and labels:
Test in all cases: ELISA, 2.5 mM CaCl2
Chikungunya Virus E1 = Chikungunya Virus E1 (Chikungunya virus)
[1] = target: T1, Zika Virus Envelope Protein (Zika virus)
T1 chain: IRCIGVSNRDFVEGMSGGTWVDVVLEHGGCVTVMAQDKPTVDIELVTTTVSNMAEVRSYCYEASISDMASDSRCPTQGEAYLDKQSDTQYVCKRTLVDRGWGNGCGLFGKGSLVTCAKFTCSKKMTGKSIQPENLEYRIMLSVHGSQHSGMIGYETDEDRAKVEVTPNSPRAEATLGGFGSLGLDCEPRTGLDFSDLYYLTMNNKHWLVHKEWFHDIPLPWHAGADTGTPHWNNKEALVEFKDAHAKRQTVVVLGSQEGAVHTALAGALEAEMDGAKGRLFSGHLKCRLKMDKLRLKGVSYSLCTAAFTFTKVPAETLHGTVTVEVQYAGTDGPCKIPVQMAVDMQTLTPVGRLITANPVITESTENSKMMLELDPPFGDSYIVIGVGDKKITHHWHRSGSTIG

[2] = target: T1, Zika Virus Envelope Protein

| Binder | EC50 (Chikungunya Virus E1) | EC50 [1] [µg/mL] | EC50 [2] [nM] |
| --- | --- | --- | --- |
| B1 | 10.2 µg/mL and 122 nM | – | – |
| B2 | – | 1 | 12.2 |
| B3 | – | 7.4 | 85.1 |
